Results published in article PMC9392322, “Modulation of macrophage inflammatory function through selective inhibition of the epigenetic reader protein SP140” (BMC Biology, 2022).
Ends that are not written are not given here. Me3 = trimethyl (trimethyl-lysine)

Legend:
[1] = target: T1, SP140 (Homo sapiens, UniProt Q13342); assay: fluorescence polarization competition against GSK064; assay type: binding
T1 construct: 6HisFLAGTEVSP140 (687-867), PHD-Brd

[2] = target: T2, 6His-Flag-Tev-SP140-PHD-Brd (687-867) (human, UniProt Q13342 687-867); assay: peptide or protein array; Active Motif modified histone peptide array, peptides on the slide; blocked with 3% BSA; 10 mg/mL 6His-Flag-Tev-SP140-PHD-Brd (687-867) in solution; detected with anti-6His antibody and anti-rabbit IgG HRP; in duplicate; conditions: both partners purified
T2 construct: SP140 (Speckled 140 kDa), construct spanning the PHD and Brd domains, aa 687-867; also called SP140 (aa 687-867); source: recombinant protein; not shown: His6, N-terminal, kept; FLAG, N-terminal, kept

[3] = target: T2, 6His-Flag-Tev-SP140-PHD-Brd (687-867); assay: fluorescence polarisation; competition: H3 peptides serially diluted, displacing 10 nM GSK306 (FAM-labelled GSK761) from 80 nM 6His…140 (687-867); 50 mM HEPES pH 7.5, 50 mM NaCl, 1 mM CHAPS, 1 mM DTT; 30 min; conditions: both partners purified

T2 sequence (Q13342 687-867): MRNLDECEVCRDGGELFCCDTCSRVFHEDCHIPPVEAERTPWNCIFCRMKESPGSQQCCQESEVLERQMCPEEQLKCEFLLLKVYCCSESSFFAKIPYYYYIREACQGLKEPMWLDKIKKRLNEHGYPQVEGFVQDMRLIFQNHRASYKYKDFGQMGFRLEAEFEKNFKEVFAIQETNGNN
T1 sequence (Q13342 687-867): as above

In the case of `Cn1c(-c2ccc(C(=O)Nc3cccc(CCOC(C)(C)C)c3)cc2)nc2cc(C(=O)Nc3cccc(CCOC(C)(C)C)c3)ccc21` [GSK761], the IC50 [1] is reported as 77.8 ± 8.27 nM.

B1: unmodified H3_(1-19) peptide (histone peptide array) (peptide)
peptide: ARTKQTARKSTGGKAPRKQ
notes: histone H3, residues 1-19; numbers count on: the protein without the initiator methionine; Spotted on the array slide; source: bought: Active Motif modified histone peptide array
B1: binds [2].

B2: biotinylated H3(+YCK) (1-18 +YCK) (peptide)
peptide: ARTKQTARKSTGGKAPRKYCK
modifications: also: biotin, position not given here
notes: histone H3, residues 1-18; numbers count on: the protein without the initiator methionine; added residues, printed as '+YCK' after 1-18; also called H3_(1-18); source: bought: Anaspec library
Molecule B2 has an IC50 [3] of 270 nM.

B3: biotinylated H3 (1-9) (peptide)
peptide: ARTKQTARK
modifications: also: biotin, position not given here
notes: histone H3, residues 1-9; numbers count on: the protein without the initiator methionine; source: bought: Anaspec library
Molecule B3 has an IC50 [3] of 2830 nM.

B4: H3K4(3Me) (1-10) (peptide)
peptide: ARTK(Me3)QTARKS
notes: histone H3, residues 1-10; numbers count on: the protein without the initiator methionine; source: bought: Anaspec library
For B4, the IC50 [3] was 12500 nM.
